B1: M-CSF: soluble growth factor (protein, UniProt P09603 33-554, looked up)
Macrophage colony-stimulating …: EEVSEYCSHMIGSGHLQSLQRLIDSQMETSCQITFEFVDQEQLKDPVCYLKKAFLLVQDIMEDTMRFRDNTPNAIAIVQLQELSLRLKSCFTKDYEEHDKACVRTFYETPLQLLEKVKNVFNETKNLLDKDWNIFSKNCNNSFAECSSQDVVTKPDCNCLYPKAIPSSDPASVSPHQPLAPSMAPVAGLTWEDSEGTEGSSLLPGEQPLHTVDPGSAKQRPPRSTCQSFEPPETPVVKDSTIGGSPQPRPSVGAFNPGMEDILDSAMGTNWVPEEASGEASEIPVPQGTELSPSRPGGGSMQTEPARPSNFLSASSPLPASAKGQQPADVTGTALPRVGPVRPTGQDWNHTPQKTDHPSALLRDPPEPGSPRISSLRPQGLSNPSTLSAQPQLSRSHSSGSVLPLGELEGRRSTRDRRSPAEPEGGPASEGAARPLPRFNSVPLTDTGHERQSEGSFSPQLQESVFHLLVPSVILVLLAVGGLLFYRWRRRSHQEPQRADSPLEQPEGSPLTQDDRQVELPV
B2: CNTF: soluble growth factor (protein, UniProt P26441 1-200, looked up)
Ciliary neurotrophic factor: MAFTEHSPLTPHRRDLCSRSIWLARKIRSDLTALTESYVKHQGLNKNINLDSADGMPVASTDQWSELTEAERLQENLQAYRTFHVLLARLLEDQQVHFTPTEGDFHQAIHTLLLQVAAFAYQIEELMILLEYKIPRNEADGMPINVGDGGLFEKKLWGLKVLQELSQWTVRSIHDLRFISSHQTGIPARGSHYIANNKKM
B3: BDNF: soluble growth factor (protein, UniProt P23560 19-247, looked up)
Neurotrophic factor BDNF …: APMKEANIRGQGGLAYPGVRTHGTLESVNGPKAGSRGLTSLADTFEHVIEELLDEDQKVRPNEENNKDADLYTSRVMLSSQVPLEPPLLFLLEEYKNYLDAANMSMRVRRHSDPARRGELSVCDSISEWVTAADKKTAVDMSGGTVTVLEKVPVSKGQLKQYFYETKCNPMGYTKEGCRGIDKRHWNSQCRTTQSYVRALTMDSKKRIGWRFIRIDTSCVCTLTIKRGR
B4: G-CSF: soluble growth factor (protein, UniProt P09919 31-207, looked up)
Granulocyte …: TPLGPASSLPQSFLLKCLEQVRKIQGDGAALQEKLVSECATYKLCHPEELVLLGHSLGIPWAPLSSCPSQALQLAGCLSQLHSGLFLYQGLLQALEGISPELGPTLDTLQLDVADFATTIWQQMEELGMAPALQPTQGAMPAFASAFQRRAGGVLVASHLQSFLEVSYRVLRHLAQP

System: cortical stem cell clones
Assay: Clonal growth of cortical stem cells with added soluble growth factors (without feeder cells)
Type: cell-based, mouse
Details: factor added at 10-50 ng/ml to serum-free medium with FGF2, no feeder cells
Protocol: Embryonic cerebral cortices and adult SVZ were dissected and dissociated as described (18-20). Single cells were plated into poly-l-lysine-coated 6-well plates (Costar) at clonal density (2000-4000 cells/well) and cultured in basal serum-free medium consisting of DMEM, B27, N2, NAC and 10 ng/ml FGF2 (19,20). To test the effects of soluble growth factors (PDGF, CNTF, TGFβ, IGF1, IL1, IL6, G-CSF, M-CSF, GM-CSF, LIF, BDNF, Steel factor, VEGF or EGF), each factor was added to serum-free medium with FGF2 at a range of 10-50 ng/ml, and clonal growth (cell number and generation of neurons and glia) was assessed (without co-cultured feeder cells). LIF and VEGF were also tested in combination, each added at 10 ng/ml into serum-free medium, with and without FGF2.

Row | Molecule | duplication of the effect of endothelial co-culture on clonal growth
1 | B1 | none duplicated the result we see from endothelial co-cultures
2 | B2 | none duplicated the result we see from endothelial co-cultures
3 | B3 | none duplicated the result we see from endothelial co-cultures
4 | B4 | none duplicated the result we see from endothelial co-cultures
